The values below come from the supplement of paper PMC7877785.

This data set in a line: self-splicing fitness, log relative to wild type (ln ratio); higher = more splicing; Tetrahymena group I intron in knt gene, E. coli kanamycin selection, DiMSum; sequences stand for … in CUCUCU…GGAGGGAAAAGUUAUCAGGCAUGCACCUGGUAGCUAGUCUUUAAACCAAUAGAUUGCAUCGGUUUAAAAGGCAAGACCGUCAAAUUGCGGGAAAGGGGUCAACAGCCGUUCAGUACCAAGUCUCAGGGGAAACUUUGAGAUGGCCUUGCAAAGGGUAUGGUAAUAAGCUGACGGACAUGGUCCUAACCACGCAGCCAAGUCCUAAGUCAACAGAUCUUCUGUUGAUAUGGAUGCAGUUCACAGACUAAAUGUCGGUCGGGGAAGAUGUAUUCUUCUCAUAAGAUAUAGUCGGACCUCUCCUUAAUGGGAGCUAGCGGAUGAAGUGAUGCAACACUGGAGCCGCUGGGAACUAAUUUGUAUGCGAAAGUAUAUUGAUUAGUUUUGGAGUACUCGUGGUCG
The gist of the method: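 Fitness was computed with DiMSum as the error-weighted combination of replicate fold changes, kanamycin versus none, each normalised to wild type. The library randomised all eight intron nucleotides of the P1ex region, with the intron placed in the knt kanamycin-resistance gene on pET-22b(+) in E. coli BL21(DE3). Six replicate transformations were grown overnight at 37°C or 30°C on LB agar with or without 25 μg/mL kanamycin, plus 100 μg/mL carbenicillin, 50 μM IPTG and 0.2% rhamnose. Pooled colonies were amplicon-sequenced on an Illumina HiSeq 2500.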

± gives the uncertainty stated by the source.

With GAGCAGCAAUAUUACGAGGU, the “self-splicing fitness (ln)” value (30 °C) was -4.1 ± 0.33 and the “self-splicing fitness (ln)” value (37 °C) was -1.65 ± 0.15.
Consider UCGUAGCAAUAUUACGCUGU, for which the “self-splicing fitness (ln)” value (37 °C) was -1.67 ± 0.28.
AAUCAGCAAUAUUACGCAGG: the “self-splicing fitness (ln)” value is, setting by setting: (30 °C) -1.51 ± 0.11; (37 °C) 0.11 ± 0.097.
On to CCAUAGCAAUAUUACGAUCG, for which the “self-splicing fitness (ln)” value was -0.244 ± 0.053 (30 °C) and 0.361 ± 0.081 (37 °C).
On to CGACAGCAAUAUUACGGAUU, for which the “self-splicing fitness (ln)” value was -3.77 ± 0.17 (30 °C) and -1.73 ± 0.099 (37 °C).
In the case of GACGAGCAAUAUUACGAGGU, the “self-splicing fitness (ln)” value was -3.81 ± 0.28 (30 °C) and -2.38 ± 0.27 (37 °C).
For ACUGAGCAAUAUUACGCCUG, the “self-splicing fitness (ln)” value by setting is: (30 °C) -2.36 ± 0.19; (37 °C) -1.48 ± 0.19.
Regarding AAACAGCAAUAUUACGCAAC, the “self-splicing fitness (ln)” value (30 °C) was -3.6 ± 0.29 and the “self-splicing fitness (ln)” value (37 °C) is -1.93 ± 0.17.
Consider GGAGAGCAAUAUUACGGUCA, for which the “self-splicing fitness (ln)” value was -1.14 ± 0.2 (30 °C) and -2.11 ± 0.36 (37 °C).
AGAGAGCAAUAUUACGUCAA: for the setting “30 °C”, the “self-splicing fitness (ln)” value was -2.29 ± 0.5.
Consider GAAAAGCAAUAUUACGCGAU, for which the “self-splicing fitness (ln)” value by setting is: (30 °C) -2.88 ± 0.28; (37 °C) -2.32 ± 0.33.
Consider GUCUAGCAAUAUUACGGCGC, for which the “self-splicing fitness (ln)” value runs as follows: (30 °C) -0.167 ± 0.1; (37 °C) 0.985 ± 0.12.
On to CACCAGCAAUAUUACGAAGA, for which the “self-splicing fitness (ln)” value was -3.26 ± 0.21 (30 °C) and -1.81 ± 0.2 (37 °C).
For the sequence GCCAAGCAAUAUUACGACUU, the “self-splicing fitness (ln)” value was -2.29 ± 0.15 (30 °C) and -1.68 ± 0.16 (37 °C).
Turning to CAACAGCAAUAUUACGGCAG, the “self-splicing fitness (ln)” value is, setting by setting: (30 °C) -0.117 ± 0.069; (37 °C) -0.00847 ± 0.076.
Consider UGAGAGCAAUAUUACGGGAG, for which the “self-splicing fitness (ln)” value runs as follows: (30 °C) -3.96 ± 0.29; (37 °C) -1.93 ± 0.21.
For the sequence UACUAGCAAUAUUACGAACC, the “self-splicing fitness (ln)” value (37 °C) is -2.16 ± 0.22.
For the sequence CAACAGCAAUAUUACGCUUU, the “self-splicing fitness (ln)” value runs as follows: (30 °C) -2.5 ± 0.17; (37 °C) -2.54 ± 0.2.
As to CGAUAGCAAUAUUACGGAGC, the “self-splicing fitness (ln)” value is, setting by setting: (30 °C) -3.91 ± 0.4; (37 °C) -1.63 ± 0.3.
Regarding CCAUAGCAAUAUUACGUAUA, the “self-splicing fitness (ln)” value runs as follows: (30 °C) -3.89 ± 0.3; (37 °C) -1.46 ± 0.17.
Consider GGGAAGCAAUAUUACGUCUU, for which the “self-splicing fitness (ln)” value runs as follows: (30 °C) -0.577 ± 0.09; (37 °C) -0.159 ± 0.13.
Taken in the same sequence, the figures for ACAAAGCAAUAUUACGUGUA were -2.6 ± 0.1 and -1.56 ± 0.084.
The matching figures for CAUAAGCAAUAUUACGGUUU: -4.02 ± 0.19 and -2.69 ± 0.17.
The matching figures for AUCGAGCAAUAUUACGUGCA: -2.85 ± 0.21 and -1.14 ± 0.13.
As to GAAGAGCAAUAUUACGGGUU, the “self-splicing fitness (ln)” value is -3.11 ± 0.2 (30 °C) and -2.22 ± 0.2 (37 °C).
Take GGUAAGCAAUAUUACGACUG: the “self-splicing fitness (ln)” value (30 °C) was -0.569 ± 0.12 and the “self-splicing fitness (ln)” value (37 °C) was -0.0619 ± 0.14.
With UUUCAGCAAUAUUACGCUUU, the “self-splicing fitness (ln)” value (30 °C) was -2.69 ± 0.14 and the “self-splicing fitness (ln)” value (37 °C) is -1.52 ± 0.13.
As for AACGAGCAAUAUUACGUCCA, the “self-splicing fitness (ln)” value (30 °C) is -2.92 ± 0.3 and the “self-splicing fitness (ln)” value (37 °C) is -1.92 ± 0.21.
Consider ACGAAGCAAUAUUACGGUUU, for which the “self-splicing fitness (ln)” value is, setting by setting: (30 °C) -3.17 ± 0.13; (37 °C) -1.89 ± 0.12.
Turning to UCCAAGCAAUAUUACGGAUA, the “self-splicing fitness (ln)” value reads like this: (30 °C) -2.57 ± 0.13; (37 °C) -1.22 ± 0.089.
Regarding GUCUAGCAAUAUUACGCGGU, the “self-splicing fitness (ln)” value was -1.78 ± 0.26 (30 °C) and -1.04 ± 0.38 (37 °C).
As for UAUCAGCAAUAUUACGUUAC, the “self-splicing fitness (ln)” value reads like this: (30 °C) -4.75 ± 0.39; (37 °C) -2.6 ± 0.21.
For ACCGAGCAAUAUUACGCGAG, the “self-splicing fitness (ln)” value reads like this: (30 °C) -2.75 ± 0.19; (37 °C) -2.06 ± 0.15.
The matching figures for AGCGAGCAAUAUUACGGUGU: -2.55 ± 0.24 and -2.37 ± 0.24.
For the sequence CGUCAGCAAUAUUACGGCAC, the “self-splicing fitness (ln)” value by setting is: (30 °C) -1.8 ± 0.12; (37 °C) -0.799 ± 0.14.
The matching figures for CACAAGCAAUAUUACGGCCA: -1.1 ± 0.13 and -0.928 ± 0.16.
Take UGAAAGCAAUAUUACGAACA: the “self-splicing fitness (ln)” value (30 °C) is -0.213 ± 0.064 and the “self-splicing fitness (ln)” value (37 °C) worked out at 0.349 ± 0.08.
As to ACUAAGCAAUAUUACGGACA, the “self-splicing fitness (ln)” value was -0.625 ± 0.094 (30 °C) and -0.362 ± 0.12 (37 °C).
